# Data from publication PMC13061415.
# B1: Twa1 CTLH-CRA domain (58-190), wild type [mouse] / muskelin CTLH-CRA domain (205–735 Δ248–625) [rat] (parent)
# chain 1: EHPMLTDMHDKLVLKGDFDACEELIEKAVNDGLFNQYISQQEYPSKDYLLRHCKYLIRKHRFEEKAQMDPLSALKYLQNDLYITVDHSDPEETKEFQLLASALFKSGSDFTALGFSDVDHTYAQRTQLFDTLVNFFPDSMTPPKGNLVDLITL
# chain 2: SVDLETLDERIKIREMILKGQIQEAIALINSLHPELLDTNRYLYFHLQQQHLIELIRQRETEAALEFAQTQLAEQGEESRECLTEMERTLALLAFDSPEESPFGDLLHMMQRQKVWSEVNQAVLDYENRESTP
# Variants of: B1
# Experiment: ITC
# Conditions: with muskelin CTLH-CRA domain (205–735 Δ248–625) [rat]; 160 µM muskelin + 16 µM Twa1 mutants
Kd [nM],screen value,Variant
340,0.88,chain 2 A68G Q69R A73Q L83K E87K L90F F95Y F103V

# Same assay, conditions: with muskelin CTLH-CRA domain (205–735 Δ248–625) [rat]; 160 µM muskelin + 16 µM Twa1 mutants; read off a plot
row,screen value [kcal/mol],Variant
1,-9.2,chain 2 A68G Q69R A73Q L83K E87K L90F F95Y F103V
